Test results: patent publication US12496346B2, “Phospholipid-flavagline conjugates and methods of using the same for targeted cancer therapy” (Cellectar Biosciences, Inc., priority 2019, dated 2025)
Like-named read-outs stand apart in the source and are kept apart here.

Assays:
[1] = Plasma stability
Description: (§1) A small amount of molecule was exposed to plasma, and the plasma was then analyzed via HPLC or MS to determine if the molecule was degraded.

[2] = in vitro; settings: human, plasma
Description: as §1

[3] = tested on: HCT 116 cells (human colon cancer); format: in vivo; settings: three doses of 1 mg/mg each, FIG. 9
[4] = in vivo; format: in vivo, mice
Description: Listed in Table 5 are the doses administered to the mice, and how many mice were alive after treatment (“3/3” indicates 3 out of 3 mice were alive). […] MTD for CLR 1865 was between 5 and 10 mg/kg.

[5] = in vitro; settings: mouse, plasma
Description: as §1

[6] = Plasma stability; remark: listed apart in the source
Description: as §1

[7] = tested on: A549 (human lung adenocarcinoma); assay: cells; format: cell-based; settings: for Therapeutic Index (TI), second value in parentheses: from the NHDF value in parentheses
[8] = tested on: A375 (human malignant melanoma); assay: IC50 of PLE-flavagline conjugates in cell lines; format: cell-based; settings: A-375, read-out: IC50 A375
[9] = tested on: HCT 116 (human colon cancer); assay: IC50 of PLE-flavagline conjugates in cell lines; format: cell-based; settings: HCT-116, read-out: IC50 HCT 116
[10] = tested on: A375 and A549 cells; assay: FLV3 levels in cell lysate and growth media by LC/MS; format: cell-based, human; settings: after 24 hours, CLR 1852 and FLV3 alone administered
Description: The levels of FLV3 in cell lysate and growth media were measured using LC/MS. […] Levels of intracellular FLV3 appeared to plateau at 24 hours, while extracellular levels of FLV3 continued to increase.

[11] = tested on: NHDF (normal human dermal fibroblasts); assay: IC50 of PLE-flavagline conjugates in cell lines; format: cell-based; settings: read-out: IC50 NHDF
[12] = in vitro, NHDF IC50 relative to cancer cell IC50

Compound | half-life [2] [h] | mice alive after treatment ([4]; Dose 0.1 mg/kg) | mice alive after treatment ([4]; Dose 0.25 mg/kg) | mice alive after treatment ([4]; Dose 0.5 mg/kg) | mice alive after treatment ([4]; Dose 1.0 mg/kg) | mice alive after treatment ([4]; Dose 5.0 mg/kg) | mice alive after treatment ([4]; Dose 10.0 mg/kg) | tolerability compared to FLV3 alone ([4]; mice) | half-life [5] [h] | human plasma stability [6] | Therapeutic Index (TI), second value in parentheses ([7]; in vitro) | Therapeutic Index (TI) [7, 12] | also measured
COC(=O)[C@H]1[C@@H](O)[C@@]2(O)c3c(OC)cc(OCCCCNC(=O)OCC(C)(C)SSCCCCCCCCCCCCCCCCCCOP(=O)([O-])OCC[N+](C)(C)C)cc3O[C@@]2(c2ccc(OC)cc2)[C@@H]1c1ccccc1 [CLR 1852] | > 6.67 | 3/3 | 3/3 | 3/3 | 3/3 | 3/3 | 3/3 | excellent improvement in tolerability | > 6.67 | excellent human plasma stability | (915) |  | time stable in plasma ([1]; species not given): at least 7 hours; tumor volume compared to vehicle [3]: reduced the tumor volume beginning at around 27 days; maximum tolerated dose (MTD) ([4]; mice): did not achieve a maximum tolerated dose; in vivo therapeutic index ([4]; mouse, in vivo): at least 25; Therapeutic Index (TI) [7]: 360; cytotoxic potency compared to FLV3 alone ([7]; various concentrations, FIG. 8 (A549 and NHDF)): modest loss in potency
COc1ccc([C@@]23Oc4cc(OCCCCNC(=O)OCC(C)(C)SSCCCCCCCCCCCCCCCCCCOP(=O)([O-])OCC[N+](C)(C)C)cc(OC)c4[C@]2(O)[C@H](O)[C@H](C(=O)O)[C@H]3c2ccccc2)cc1 [CLR 1865] | > 6.67 | 3/3 | 3/3 | 3/3 | 3/3 | 3/3 | 2/3 | excellent improvement in tolerability | 3.32 | excellent human plasma stability | (37.3) | 11.64 | time stable in mouse plasma ([1]; mouse): 3.3 h; in vivo therapeutic index ([4]; mice): ≥ 12.5; MTD ([4]; mouse, in vivo, mice, read-out: maximum tolerated dose (MTD)): 5 to 10 mg/kg
COC(=O)[C@@H]1[C@H](O)[C@]2(O)c3c(OC)cc(OCCCCN)cc3O[C@]2(c2ccc(OC)cc2)[C@H]1c1ccccc1 [FLV3] |  | 3/3 | 3/3 |  |  |  |  |  |  |  |  | 0.89 | IC50 [8]: 15 nM; IC50 [9]: 9 nM; levels of FLV3 in the cell lysate [10]: high levels; levels of FLV3 in the growth media [10]: Moderate levels; IC50 ([7]; Homo sapiens, A549, read-out: IC50 A549): 90 nM; IC50 [11]: 8 nM
